Data on 17 sequences can be found in the Immune Epitope Database (IEDB).

Experiment [1] concerns the target HLA-B*07:02. The experiment is described as follows: IEDB peptide-MHC binding, purified MHC/competitive/radioactivity; filed as Kd, often an IC50 or EC50 that approximates it; ≥ and ≤ were set here for values at or beyond the usual limits of such assays.
The target in experiment [2] is HLA-A*26:01. Described as above.
The target of experiment [3] is HLA-A*24:02. The description is as above.
In experiment [4] the target is HLA-A*29:02. The experiment is described as above.
Experiment [5] has as its target HLA-A*23:01. The description is as above.
Experiment [6] has as its target HLA-A*30:02. Described as above.
In experiment [7] the target is HLA-A*01:01. The experiment is described as above.
Experiment [8] addresses HLA-B*51:01. Described as above.
Experiment [9] concerns the target HLA-A*26:01. The experiment is described as follows: IEDB peptide-MHC binding, purified MHC/direct/fluorescence; filed as Kd, often an IC50 or EC50 that approximates it; ≥ and ≤ were set here for values at or beyond the usual limits of such assays. The following applies: source organism: Mycobacterium tuberculosis variant bovis.
The target in experiment [10] is HLA-A*03:01. Briefly: IEDB peptide-MHC binding, purified MHC/competitive/radioactivity; filed as Kd, often an IC50 or EC50 that approximates it; ≥ and ≤ were set here for values at or beyond the usual limits of such assays. To be noted: source organism: Triticum aestivum.
Experiment [11] addresses HLA-A*31:01. The description is as above. The following applies: source organism: Triticum aestivum.
The target in experiment [12] is HLA-A*33:01. The experiment is described as above. To be noted: source organism: Triticum aestivum.
In experiment [13] the target is HLA-A*68:01. The experiment is described as above. The following applies: source organism: Triticum aestivum.
Experiment [14] concerns the target HLA-A*11:01. The experiment is described as above. To be noted: source organism: Triticum aestivum.
Where [15] appears, read: source organism: Dengue virus 1 Brazil/97-11/1997.
Where [16] appears, read: source organism: SARS coronavirus Tor2.
Setting [17] is: source organism: Triticum aestivum.
Where [18] appears, read: source organism: Dengue virus 2 Jamaica/1409/1983.
Where [19] appears, read: source organism: Mammarenavirus guanaritoense.

With TPSMAMRCVG, the Kd in [1] (setting [15]) was 0.405 µM.
Regarding RPRWLDARVY, the Kd in experiment [1] (source organism: Dengue virus 4 Dominica/814669/1981) was found to be 0.0137 µM.
Turning to CYGVSATKL, the Kd was no less than 77.9 µM in [2] (setting [16]); no less than 34.3 µM in [3] (setting [16]); 12.2 µM in experiment [4] (setting [16]); 12 µM in experiment [5] (setting [16]); no less than 81.1 µM in experiment [6] (setting [16]); no less than 78.1 µM in [7] (setting [16]).
As for WPLNEGIMAI, in experiment [8] (setting [15]), the Kd came out at 0.186 µM.
On to ETLPAMCNVY, for which the Kd was 0.205 µM in experiment [2] (setting [17]); no less than 70.3 µM in [3] (setting [17]); 4.15 µM in experiment [4] (setting [17]); no less than 38.8 µM in experiment [5] (setting [17]); 3.66 µM in experiment [6] (setting [17]); 0.415 µM in experiment [7] (setting [17]).
As for IPKNFAGPV, the Kd in [8] (setting [18]) came to 3.1 µM; in experiment [1] (setting [18]), 0.00679 µM.
Regarding LALLAAFKV, the Kd in experiment [8] (setting [18]) stood at 0.812 µM.
For the sequence NGDVVAIDY, the Kd in experiment [2] (setting [16]) was no less than 81.5 µM; in [3] (setting [16]), no less than 77.6 µM; in experiment [4] (setting [16]), 0.825 µM; in experiment [5] (setting [16]) it was no less than 77.8 µM; in experiment [6] (setting [16]), 1.8 µM; in experiment [7] (setting [16]), 1.03 µM.
For PYPQPQPQY, the dissociation constant Kd was no less than 77.9 µM in experiment [2] (setting [17]); no less than 237 µM in experiment [3] (setting [17]); 0.23 µM in experiment [4] (setting [17]); no less than 49.4 µM in [5] (setting [17]); 0.639 µM in [6] (setting [17]); no less than 78.1 µM in experiment [7] (setting [17]).
For the sequence QFLYLYALI, the Kd in [2] (setting [16]) was 10.1 µM; in [3] (setting [16]), 0.0261 µM; in experiment [4] (setting [16]), 0.0641 µM; in [5] (setting [16]), 0.000117 µM; in [6] (setting [16]), no less than 26.7 µM; in experiment [7] (setting [16]) it was 2.32 µM.
Consider ISMMGFKMNY, for which the Kd was 5.45 µM in experiment [2] (setting [16]); no less than 70.3 µM in experiment [3] (setting [16]); 0.0334 µM in experiment [4] (setting [16]); no less than 31 µM in experiment [5] (setting [16]); 0.00425 µM in [6] (setting [16]); 0.422 µM in experiment [7] (setting [16]).
On to CLERWMLVA, for which the Kd in experiment [2] (setting [19]) is no less than 77.9 µM; in experiment [3] (setting [19]), no less than 77.5 µM; in [4] (setting [19]), no less than 78.9 µM; in [5] (setting [19]), no less than 77.7 µM; in experiment [6] (setting [19]) it was 14.9 µM; in experiment [7] (setting [19]), 0.153 µM.
Take EIARIVEQM: the Kd in experiment [9] is 0.194 µM.
With AMCNVYIPPY, the Kd is 0.854 µM in experiment [2] (setting [17]); no less than 28.3 µM in [3] (setting [17]); 0.152 µM in experiment [10]; 0.013 µM in [4] (setting [17]); 0.224 µM in experiment [11]; 2.6 µM in experiment [12]. The Kd in experiment [13] was found to be 0.921 µM; in experiment [5] (setting [17]), 11.5 µM; in [6] (setting [17]), 0.874 µM; in [7] (setting [17]), 0.0835 µM; in experiment [14], 0.136 µM.
With NFKHLREFVF, the Kd is no less than 69.7 µM in [2] (setting [16]); 0.26 µM in experiment [3] (setting [16]); 0.0164 µM in experiment [4] (setting [16]); 0.115 µM in experiment [5] (setting [16]); no less than 78.9 µM in experiment [6] (setting [16]); no less than 70.4 µM in experiment [7] (setting [16]).
For AFLIGANYL, the Kd in experiment [2] (setting [16]) was no less than 77.9 µM; in experiment [3] (setting [16]), no less than 45.9 µM; in experiment [4] (setting [16]), no less than 26.6 µM; in experiment [5] (setting [16]) it was no less than 55.3 µM; in [6] (setting [16]), no less than 78.9 µM; in experiment [7] (setting [16]), no less than 73 µM.
Turning to KPGTSGSPIV, the Kd in experiment [1] (setting [15]) was 1.08 µM.

As a reminder, the Kd is a measure of binding affinity in units of concentration.
